Experiment: protease stability score; higher = more stable; yeast display proteolysis, trypsin and chymotrypsin;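 also: relative to predicted unfolded state with 0 unfolded-like and 1 meaning tenfold more protease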

Sequence: SEDEDELKEWIRIIIHLLTTGNEDLIENNADPNVRIEFNGKTYHGMEDFHEWMRYAINELRFHDFRLDSFRIVNGKVDLNTTLIGNINGVLTRRETRMIIIKVNGRWLIHALVFK
- protease stability score: 1.75

Sequence: SEDEDFAKKWTDEILTAFLTGDWKLLSDLVDPNVRVIYGEFHFHGREQTIKWLEHHYREIRIHDYKIKHIEVQGEKVIVDGEVDRHYNGRRHRIHTEIIIIIFNGVIREIEFREN
- protease stability score: 2.05

Sequence: SEDEDFMQKALKHDWELWETGDEEKIQKQADPHVRMDFDGVEYHGMELFSELLDRYLRKVKGLQIRLRHVHVKIINGQAIMDIDGTVNINGREIRLHIKIFNEKINGKWIHSSIRFEFR
- protease stability score: 1.21

Sequence: SEDEDHARLMFELLLRMITTGDEESLRELVDPNVRVSVDGVDLHGWDSLSKFLKHIRIRVDHSEMHDMRVIDGVLQANTHMQITVEFNGRRVQRQVETRVEVVKINGKWAIHRFSVH
- protease stability score: 2.55

Sequence: SEDEDIAKEILRLLLEALRTGDWHTVHRLMDPHARVHVNGRDFIGMEEVLRWLEEFLRHMRLRSLTVHDIRIFDGRLHVDSRSDVEIDGRRISIETEVIILKVDGRWHVKSIIFR
- protease stability score: 1.36

Sequence: SEDEDISRNFLELEWKKHMTGDWRTFAENIDPNARVDIDGVEFHGRELISRLMHEKIRKHGVKIKHLHIDHVSSQGDKIHINTTLVGLFNGRDTHLEVHIVITKINGRWVLQEFHFD
- protease stability score: 0.591

Sequence: SEDEDLFHHVLHVWLNAMETGDFEVFKHLLDPRTKEHQGDKHLIGREDALRKFREEWEKYPNMRVEIRVDDWDIQGNKIRAKVHIIIRQGDKTYSVEIDLIMVKVNGRWFIHSIIIH
- protease stability score: 0.966

Sequence: SEDEDLSRHLSELWLDALRTGDEKSTHKMADPHTRVEVGDKTDHGMEVWNRIFERFKGARLEITEWRTIGEKVHYHMHIEYGDKHVDVEIEIIQINGQVKEFIIRVRIK
- protease stability score: 0.249

Sequence: SEDEDNMHEFFRIWSRVQETGDEEAMLKLMDPNVRTDINGVELHGREEFEKELHRLIFEWGFDRFVVHIEHEDIFNGRIHVRSRVIYGDKEVHVIIHVYKVNGQWRVEELRFE
- protease stability score: 1.41

Sequence: SEDEEAAHRFLQMFLSTSHTGDEKESRELADPHVRIDIDGQKHHGRHEWVKVFRHLRIHNIEIKDYHVIDGRLRLDYKVDLEVGDKKIEHRLHIDVEKIDGRWEIQRVHLI
- protease stability score: 1.58

Sequence: SEDEEAAHWLTLVLIELFRTGDEDSFTKLLDPNARMHVGDKDFHGRHHILHWILHFLRELGVDHRDMKVEDQHFYDGRLELHVTIIIIVGDKKIRIESHFYVEKVNGRWLVKKIHIH
- protease stability score: 1.41

Sequence: SEDEEAAKHMFELLVHHIETGDEESLRKLLDPNVRMDIDGRIIHGREIFARQMFLESLHIRTEFRLKHVDTIGEKLHLFTEVTYKINGVHIKRDTRVIILKVDGRWVFHSIRFE
- protease stability score: 0.951

Sequence: SEDEEAAKRLTDLLIHNWETGNEDELHRLIDPNMREDVNGKEFHGWSYMVHFLRRIDHVFSHITIHDIKSVGDYVYIDGTVDEIFHIGDSKIRINIRVTIIILKINGRWIMTHVHVK
- protease stability score: 1.32

Sequence: SEDEEAIERFLREFVKAERTGDEKTILSLMDPHVRIHQGDWEVHGRDDLRHFFHRIDHVRSRFHLTHVDHQGDKAIFKGTVEYHIHVDGKDIHSTSSVDIHVRKINGRWLMHNVHIE
- protease stability score: 1.63

Sequence: SEDEEAIRHALRIFEEVLQTGDEHSIENLFDPNTRIDINGKHLHGWHKLEEWLSRFDHLEVHVHIHSSNVFDGRIHNDTRVKMHLYINGKIIELHQETHIISKKVNGRWYVKMIIIR
- protease stability score: 1.17

Sequence: SEDEEALKKAIDLLFESLLTGDERELEKLADPNYRMEVNGKEIHGRELFSKTMIDILQRLGIDHIDFRIEHDETQGDKVIIEGKLIFKVGDKHIEIKSRLIVLKVDGQWILRHSRMH
- protease stability score: 2.05

Sequence: SEDEEASKEMLERLIESIKTGDWRHDSNMVDPHARFRVGDKEFHGRDDLEHLVKHLGIKHVEVQHVRTYGNKMELHGWERFNGREVRVELHFVKIDGQWVLTEYRVR
- protease stability score: 0.616

Sequence: SEDEEAVHKMLEMWIKHINTGDERHLHKLADPNYRVEQGDKELHGRHAYEYVFHQFDHWKEIRIEEVKTYDGRVKIKGREVYHINGQEIESEVRIITTKVDGQWHLKSILFK
- protease stability score: 0.525

Sequence: SEDEEAVRRILKKLLQSHETGDFRMFDRMLDPHVRLDVNGREHIGRESVHRVVEELRIEDMRLTDMHSQGNYLDIDGRLDGSVNGKKDTYRVRLVILKVDGRWIIEEMRIG
- protease stability score: 1.95

Sequence: SEDEEAVRRLIRMLVEWESTGDFESVLRLFDPHARYRIDGVDLHGRHAWERLYKEIRINSVRVKRIEMQGDKVHVDSRLRGEIDGRETDLEVEIIIRKVNGRWVIEEVRIH
- protease stability score: 2.2

Sequence: SEDEEDAERLIRELEHAWHTGDEKYLWEMIDPHARFIIGDKEFHGRDLQLRILHRLIKELGVSRFELHIEHFEVIDGRLHTEGRLNVNGRILKTHLILRKIDGRWLIKSDELR
- protease stability score: 1.49

Sequence: SEDEEDARRMVEIWKRSLETGDFKRILELMDPNTKYLFNGREYHGRHFVSRLFTEELERIKGARIEEESLEIQGNKVILHTRLHINGQHFKQITIIMKIDGKWFLESFSVE
- protease stability score: 2.01

Sequence: SEDEEDFERAIKLYETLNATGNEEEYSKMVDPHVKMHFNGVDFHGREKMVEVVHKLGVKHLETKSIRIIGDFLRSRFENDVDGRKIEQEVQMLKINGRWLIKYISFH
- protease stability score: 0.706

Sequence: SEDEEDFERAMKLLMHDIRTGNEESLNRLFDPNVKININGKELWGREKWIEFLERVDHLDVHDMKIRHLDIQGEKVRAEVHIDRRIKIGDKETRVKVDIRMIAVKVNGRWLLREISVE
- protease stability score: 2.1

Sequence: SEDEEDLKRIVELLVRALKTGDEDLIRHLADPHVRLEVGDKEHHGREEYTRWAENFVERIDHVNIHIKRMTTIGNYLQMDVRLEERFDGRRVELRHYLIILKVDGRWVIKEVQIE
- protease stability score: 1.25

Sequence: SEDEEDLRRIFELLMELWLTGDERHMEHLIDPNAKLHYDGVEYHGREDARRLIHRFDVFEDARVRRVRLIDGQVRMDTHFIGRVDGRRIQVDSIIFMRKINGRWVSKEEVYV
- protease stability score: 1.34

Sequence: SEDEEDMKKASETISEEYHTGDEDAHKKLMDPNARMLYGDKDTHGREHWEHVIKRFGFDHVIIKRIEIHVYDGRIDLHMDVRLIVNGQNLEVRLIIIVRKINGRWRIESVNIHIE
- protease stability score: 0.061

Sequence: SEDEEDMTHAIEEIEHFWMTGDWKKMHDLADPHVKTIINGREQHGRRHMIEAIKDSRRRLGVNYIHSVSNKHFDLQGNKVHSDIRIDVDVNGKHIDLELEVDIVKVDGKWQLSHLKIV
- protease stability score: 0.931

Sequence: SEDEEDSKEAFRLVEEILITGNEEEIDDMADPHTRVQIGNKIWHGRELFLDWVREHLRRADVVRDVHLTHESAYDGKVELHMKVVIHYGDKTIDTEMVFVSRKIDGKWITHSITMV
- protease stability score: 1.18

Sequence: SEDEEDVEQWVRIWFDLLLTGDEDSLRKLIDPHARVEVNGVIQIGREEVARFLSQMRVHDSTLRDIKIYDGRVEIDNEEDVEFNGQRKRVKVILISNKFDGRWTNEHEKYE
- protease stability score: 0.449

Sequence: SEDEEEAERFLRMFFELIRTGDERTIERLLDPHVRIDIDGRDIHGRERAQEHVQHWYRHIRIEDDQIKEFHIQGNKVEHHGRRRGSFNGVTYEVTVHETVLKVDGVWYMKEVHVR
- protease stability score: 0.891

Sequence: SEDEEEAHEFLKRLDNAHRTGDEDFVYEQMDPDVRIDINGREWHGRELAREYLSIYGIKVMEVKRVNVYDGRINVDGHVEFNGVRNKTTIIMQKIDGRWRVKSITIK
- protease stability score: 1.41

Sequence: SEDEEEAKRSIELEMRSWRTGDEDAWLRLADPDVKFVIDGREFHGREALEFLQNRFDHIEMREHEVRHVDLQGDKIHMDTRLRMILIYNGVEIEKETRTEIVVKKIDGRWILHQVEYR
- protease stability score: 0.724

Sequence: SEDEEEATHLSRVLIELLKTGDEEMLEHLADPNDRNDFNGRVKHGRELVTKMLRKLMTDLGIDHIEHVTLRRLEVQGEWVKFNFEIIGRVNGRELSFRVRFIMEKVDGKWRLSERHTI
- protease stability score: 1.71

Sequence: SEDEEEERRVEKLWSKALHTGDEEELHRLADPNVLLNFDGVEYIGREEFLKHFRRLVHEARIEFIILKDSKLIDGRLHIHGIDLVTQGDKRIELKSEVIVLKINGRWIIHHIHIH
- protease stability score: 0.75

Sequence: SEDEEEFRRWLEEMVRALITGDEDRLKELFDPHAQVHVNGKERHGRDELVKAFRETLEDFGVKHMRVTSSSVQGDYVIIHIEMHVDGKPIQTDIRVIIVNGKVHKFEVQLH
- protease stability score: 1.89

Sequence: SEDEEEHKEMLRILIHDNRTGDEDSFRDMFDPNVRFEQGEWSAHGRDWAEHVMRRADHVKLDLQTMDTQGDKVILHGRLILLQGEKRIDEKVIFIIRKIDGKWILESVHFH
- protease stability score: 1.21

Sequence: SEDEEEIKKAVEILLKELRTGDEDSFEKNLDPNARVHDENHRSHGREEVTKWFYEFRKKFKNARHTFEHIIVVGDKVINHMRVEIDGVTINSLWFIKKVDGRWVITSIHIN
- protease stability score: 2.26

Sequence: SEDEEEIKTTFENLDRSIRTGDEDHVRKLADPTMRLDWNGQEFHGREWFSKHLSEFVKRADHFEIRLHDLDMVNGKLHIDGQLILIINGRTQILKLHLVFIKVDGRWILDNVQVN
- protease stability score: 1.04

Sequence: SEDEEEISEFTRMHLEDIITGDEDTLRRLVDPNVRIFIDGKHIHGMETYVKRLDENFKHLGVDHVEIRIHQIRLINGRARVDGVLIIEIGDKREERRTFLILLKVNGRWVMEEYRIH
- protease stability score: 1.07

Sequence: SEDEEEKHKFAEIFWHAHLTGDFDTLKRLVDPNVRIRIGDKDLHGREHLLEELRKIKNLTIEERHVDIQGEWMRMEVVHYVNGVHIDTTIHIDVVNGRIRRIVFNIV
- protease stability score: 2.47

Sequence: SEDEEELERELRLWLSLVLTGDEDIIRELADPHARSRVNGQKSHGRENLLQLFREHMEIMGAKVVDIEEYHIQGEKIILIMRVHVGDKEYELRIEIHVFNGRLKEVNLHFK
- protease stability score: 1.52

Sequence: SEDEEELNRVLKELLHAMVTGNEELWSRLVDPNYRVTVGDFRLHGMEEYSRILHEWRVEIREFRITSRTTVDGRIFIDAHFTEEIKQGDKVTFVNTRIRLIMIKVDGRWHVESREIR
- protease stability score: 0.484

Sequence: SEDEEESEFAVRELSKIIKTGDPDRFHHLADPNMRFIYGDKREHGMESWVSHLHRLGIENVEVHIHDWSVFNGQVVIDGRINVNGREVNAEFVMRKIDGRWHITEVRER
- protease stability score: 0.611

Sequence: SEDEEESEKFLRRLLQAYRTGDEDKLNELIDPNARMDVNGVDNHGWEEISRLLKELRVKHLILHDQKNYDGRAEMDTIVDGRFNGRDDRRKSIIIVIKIDGRWIIESLSIG
- protease stability score: 1.1

Sequence: SEDEEESRHAYQKLVRDLETGDEKKTEDNVDPNVRLEQGDKTLHGRERFVHWYSRLGAKHFHIHSFEAQGDKIHIDGTINVNGVTHRVEYISLKVNGRWLMHQVIIR
- protease stability score: 0.662

Sequence: SEDEEETRESLELLMRSLKTGDEHQIRRMFDPDALTVIDGREFHGRERATHAMREWKREIRIKEIRIRDWKTQGEKVHLDIEVVTEVNGVEDRREVKLLLIKVNGRWFIHSIHIH
- protease stability score: 1.43

Sequence: SEDEEEVKHMVDEWWKQVLTGDEESLMRLIDPHAKLDFENVTYHGRDELSRYLTKLLREIRFRDIKIHDVRVYDGKVDLHTHMNIIVDGRTHILDTRMIIVKINGRWYIHQVRIK
- protease stability score: 2.42

Sequence: SEDEEEVRKFLKRLLRATETGNEQVLKELFDPNVRIVIGDKHLIGWDFMHTILRRVDVWVVRHIEIKRIDFQGDKLDIDGHVHYEEQIDGQRVSHKRDVKLIMLKVNGVWMFEYIIIH
- protease stability score: 2.45

Sequence: SEDEEEWHEATHLLVESLKTGDWKDLSRLADPNAKLHVGEKTVIGRELVSKHLKNRMTELGINHIHIEDRESQGDKIFIISHIHVNGREMKSIFIILKIDGRWILHSMEIREH
- protease stability score: 0.327

— the NTF2 design screens of Basanta et al. (2020)
